Measured values: patent US20250130242A1
Non-standard residues stand in square brackets, D forms with d. No end group written: not given here. pGlu = O=C1CC[C@@H](C(=O)O)N1

Tests used:
[1] = molecular target: S24201 antibody; assay: competitive ELISA; coated C1A2-01-BSA (printed C1A1-02-BSA), S24201 125 ng/mL, competitive peptide 0.32 ng/ml
[2] = molecular target: S24201 antibody; assay: competitive ELISA; coated C1A2-01-BSA (printed C1A1-02-BSA), S24201 125 ng/mL, competitive peptide 5000 ng/ml
[3] = molecular target: S24201 antibody; assay: competitive ELISA; coated C1A2-01-BSA (printed C1A1-02-BSA), S24201 125 ng/mL, competitive peptide 1000 ng/ml
[4] = molecular target: S24201 antibody; assay: competitive ELISA; coated C1A2-01-BSA (printed C1A1-02-BSA), S24201 125 ng/mL, competitive peptide 8 ng/ml
[5] = molecular target: S24201 antibody; assay: competitive ELISA; coated C1A2-01-BSA (printed C1A1-02-BSA), S24201 125 ng/mL, competitive peptide 0 ng/ml (baseline without competitor)
[6] = molecular target: S24201 antibody; assay: competitive ELISA; coated C1A2-01-BSA (printed C1A1-02-BSA), S24201 125 ng/mL, competitive peptide 40 ng/ml
[7] = molecular target: S24201 antibody; assay: competitive ELISA; coated C1A2-01-BSA (printed C1A1-02-BSA), S24201 125 ng/mL, competitive peptide 200 ng/ml
[8] = molecular target: S24201 antibody; assay: competitive ELISA; coated C1A2-01-BSA (printed C1A1-02-BSA), S24201 125 ng/mL, competitive peptide 1.6 ng/ml

Absorbance at wavelength 492 nm (absorbance at 492 nm) [1]	Absorbance at wavelength 492 nm (absorbance at 492 nm) [2]	Absorbance at wavelength 492 nm (absorbance at 492 nm) [3]	Absorbance at wavelength 492 nm (absorbance at 492 nm) [4]	Absorbance at wavelength 492 nm (absorbance at 492 nm) [5]	Absorbance at wavelength 492 nm (absorbance at 492 nm) [6]	Absorbance at wavelength 492 nm (absorbance at 492 nm) [7]	Absorbance at wavelength 492 nm (absorbance at 492 nm) [8]	Binder
0.706	0.313	0.521	0.681	0.702	0.693	0.652	0.7	QSLQEETVRK [peptide C1A2-03 (…)]
0.712	0.074	0.142	0.668	0.752	0.541	0.306	0.735	[pGlu]SLQEETVRK [peptide C1A2-02 (J…)]
